{"source": "paper doi:10.1101/2025.10.14.682086v1", "proteins": {"B1": {"name": "Mc-NDH2 (Methylococcus capsulatus str. Bath) (protein)", "chain": "MQRKRNEQPLPRILIIGGGAGGLELATKLGRTLGKKGKAQVTLIDAHPTHIWKPLLHEVAAGTMDVNDDELDYLAQANACHFRFVLGRMSGLDRVAKQVKLAPMTNAAGEEVIPACSYPYDILVIAVGSVCNDFGVPGVAQNCIFLDTTEEAQQFHRRLLEAYMRAHAMGGAKQPGQLDVAIVGGGATGIELSAQLHQATRLLAAYGLDNVKPSDIKIHLIEAAPRLLPELPPRLSESTVKQLLALDVQLHLGERVVEARPDGVLTHTGKFIPATLKVWAAGVKAPDFLAQTDLETNRLNQVVVRQTLQTTRDDHIFAIGDCSACPWPERNTTVPPRAQSAHQQASTAYENILRLLAGKAPVDYRYRDYGSLVSLGKYSTVGNLMGNLLGSVMIEGVIARLVYLSLYKMHQYALFGPLRVGLIMIAHFFSQKLRPKIKLH"}, "B2": {"name": "Ec-NDH2 (Escherichia coli K-12) (protein)", "chain": "TTPLKKIVIVGGGAGGLEMATQLGHKLGRKKKAKITLVDRNHSHLWKPLLHEVATGSLDEGVDALSYLAHARNHGFQFQLGSVIDIDREAKTITIAELRDEKGELLVPERKIAYDTLVMALGSTSNDFNTPGVKENCIFLDNPHQARRFHQEMLNLFLKYSANLGANGKVNIAIVGGGATGVELSAELHNAVKQLHSYGYKGLTNEALNVTLVEAGERILPALPPRISAAAHNELTKLGVRVLTQTMVTSADEGGLHTKDGEYIEADLMVWAAGIKAPDFLKDIGGLETNRINQLVVEPTLQTTRDPDIYAIGDCASCPRPEGGFVPPRAQAAHQMATCAMNNILAQMNGKPLKNYQYKDHGSLVSLSNFSTVGSLMGNLTRGSMMIEGRIARFVYISLYRMHQIALHGYFKTGLMMLVGSINRVIRPRLKLH"}}, "key": {"[1]": {"substrate": "CC1=CC(=O)c2ccccc2C1=O", "experiment": "purified protein, by the assay type", "details": "25.0 °C"}, "[2]": {"substrate": "NC(=O)C1=CN([C@@H]2O[C@H](COP(=O)(O)OP(=O)(O)OC[C@H]3O[C@@H](n4cnc5c(N)ncnc54)[C@H](O)[C@@H]3O)[C@@H](O)[C@H]2O)C=CC1", "experiment": "purified protein, by the assay type", "details": "25.0 °C"}}}
{"protein": "B1", "values": [{"measurement": "Km", "setting": "[1]", "result": "12.9 ± 5.4", "unit": "µM"}, {"measurement": "kcat", "setting": "[1]", "result": "3.9 ± 0.4", "unit": "s⁻¹"}, {"measurement": "Km", "setting": "[2]", "result": "9.5 ± 5.3", "unit": "µM"}, {"measurement": "kcat", "setting": "[2]", "result": "9.08 ± 1.1", "unit": "s⁻¹"}]}
{"protein": "B2", "values": [{"measurement": "Km", "setting": "[1]", "result": "15.6 ± 8.5", "unit": "µM"}, {"measurement": "kcat", "setting": "[1]", "result": "107 ± 13.1", "unit": "s⁻¹"}, {"measurement": "Km", "setting": "[2]", "result": "1.7 ± 1.09", "unit": "µM"}, {"measurement": "kcat", "setting": "[2]", "result": "43.6 ± 4", "unit": "s⁻¹"}]}
